Results as given in the supplement of paper PMC7877785.
± gives the uncertainty stated by the source.

Assay: self-splicing fitness, log relative to wild type (ln ratio); higher = more splicing; Tetrahymena group I intron in knt gene, E. coli kanamycin selection, DiMSum; sequences stand for … in CUCUCU…GGAGGGAAAAGUUAUCAGGCAUGCACCUGGUAGCUAGUCUUUAAACCAAUAGAUUGCAUCGGUUUAAAAGGCAAGACCGUCAAAUUGCGGGAAAGGGGUCAACAGCCGUUCAGUACCAAGUCUCAGGGGAAACUUUGAGAUGGCCUUGCAAAGGGUAUGGUAAUAAGCUGACGGACAUGGUCCUAACCACGCAGCCAAGUCCUAAGUCAACAGAUCUUCUGUUGAUAUGGAUGCAGUUCACAGACUAAAUGUCGGUCGGGGAAGAUGUAUUCUUCUCAUAAGAUAUAGUCGGACCUCUCCUUAAUGGGAGCUAGCGGAUGAAGUGAUGCAACACUGGAGCCGCUGGGAACUAAUUUGUAUGCGAAAGUAUAUUGAUUAGUUUUGGAGUACUCGUGGUCG
In short: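 The eight P1ex-region nucleotides of an intron in the knt kanamycin-resistance gene on pET-22b(+) were all randomised and the library put into E. coli BL21(DE3). Six replicate transformations were grown overnight at 37°C or 30°C on LB agar with or without 25 μg/mL kanamycin, together with 100 μg/mL carbenicillin, 50 μM IPTG and 0.2% rhamnose. Colonies were pooled and amplicon-sequenced on an Illumina HiSeq 2500. Fitness from DiMSum is the error-weighted combination of wild-type-normalised replicate fold changes, kanamycin over none.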

Row | Sequence | self-splicing fitness (ln) (37 °C) | self-splicing fitness (ln) (30 °C)
1 | CUCAAGCAAUAUUACGGCUA | -2.22 ± 0.35 | –
2 | CUCAAGCAAUAUUACGGGAA | -1.19 ± 0.14 | -2.51 ± 0.16
3 | CUCAAGCAAUAUUACGGGCC | -2.78 ± 0.36 | -4.15 ± 0.35
4 | CUCAAGCAAUAUUACGGUAA | -1.66 ± 0.18 | -1.8 ± 0.27
5 | CUCAAGCAAUAUUACGUAAC | -2.08 ± 0.15 | -4.43 ± 0.19
6 | CUCAAGCAAUAUUACGUCCU | -2.79 ± 0.19 | -4 ± 0.27
7 | CUCAAGCAAUAUUACGUCGA | -1.41 ± 0.18 | -3.37 ± 0.31
8 | CUCAAGCAAUAUUACGUUCC | -2.32 ± 0.26 | -3.08 ± 0.32
9 | CUCCAGCAAUAUUACGAACC | -1.91 ± 0.32 | -3.49 ± 0.26
10 | CUCCAGCAAUAUUACGAGAA | -1.91 ± 0.31 | -2.14 ± 0.38
11 | CUCCAGCAAUAUUACGAGUG | -1.34 ± 0.11 | -2.45 ± 0.11
12 | CUCCAGCAAUAUUACGAUGA | -2.7 ± 0.27 | -2.36 ± 0.25
13 | CUCCAGCAAUAUUACGCAUU | -3.51 ± 0.23 | -3.38 ± 0.13
14 | CUCCAGCAAUAUUACGCCCC | – | -4.17 ± 0.46
15 | CUCCAGCAAUAUUACGGCAA | -2.71 ± 0.16 | -3.55 ± 0.17
16 | CUCCAGCAAUAUUACGGCGG | -3.1 ± 0.22 | -4.65 ± 0.28
17 | CUCCAGCAAUAUUACGGUGG | -2.42 ± 0.18 | -3.79 ± 0.19
18 | CUCCAGCAAUAUUACGGUUC | -3.19 ± 0.35 | -2.51 ± 0.17
19 | CUCCAGCAAUAUUACGUAAA | -2.17 ± 0.18 | -3.45 ± 0.17
20 | CUCCAGCAAUAUUACGUAGA | -2.58 ± 0.16 | -3.31 ± 0.15
21 | CUCCAGCAAUAUUACGUAGG | -1.9 ± 0.15 | -2.92 ± 0.11
22 | CUCCAGCAAUAUUACGUCGG | -2.36 ± 0.15 | -3.14 ± 0.15
23 | CUCCAGCAAUAUUACGUGUG | -1.5 ± 0.08 | -2.17 ± 0.069
24 | CUCCAGCAAUAUUACGUUCC | -1.99 ± 0.35 | -4.23 ± 0.46
25 | CUCCAGCAAUAUUACGUUGG | -2.49 ± 0.21 | -3.68 ± 0.19
26 | CUCGAGCAAUAUUACGAGAU | -2.76 ± 0.27 | -2.87 ± 0.23

Row | Sequence | self-splicing fitness (ln) (37 °C) | self-splicing fitness (ln) (30 °C)
27 | CUCGAGCAAUAUUACGAGCG | -2.84 ± 0.25 | -3.66 ± 0.43
28 | CUCGAGCAAUAUUACGAGGA | – | -1.94 ± 0.26
29 | CUCGAGCAAUAUUACGCAAG | -1.35 ± 0.3 | -3.95 ± 0.43
30 | CUCGAGCAAUAUUACGCACG | – | -1.6 ± 0.23
31 | CUCGAGCAAUAUUACGCCUC | – | -1.8 ± 0.21
32 | CUCGAGCAAUAUUACGCGAG | -2.98 ± 0.47 | -3.97 ± 0.42
33 | CUCGAGCAAUAUUACGCUGG | -3.22 ± 0.22 | -4.31 ± 0.24
34 | CUCGAGCAAUAUUACGGCCU | -1.37 ± 0.36 | –
35 | CUCGAGCAAUAUUACGUAGC | -2.19 ± 0.27 | –
36 | CUCGAGCAAUAUUACGUCAG | -0.401 ± 0.39 | –
37 | CUCGAGCAAUAUUACGUCAU | -3.38 ± 0.28 | -4.1 ± 0.27
38 | CUCGAGCAAUAUUACGUGAA | -2.93 ± 0.47 | -2.47 ± 0.21
39 | CUCGAGCAAUAUUACGUGAU | -0.542 ± 0.12 | -2.16 ± 0.14
40 | CUCGAGCAAUAUUACGUUUC | -1.25 ± 0.25 | -1.78 ± 0.29
41 | CUCUAGCAAUAUUACGAAAC | – | -2.61 ± 0.35
42 | CUCUAGCAAUAUUACGAACC | – | -3.06 ± 0.37
43 | CUCUAGCAAUAUUACGAAGU | -4.77 ± 0.23 | -3.44 ± 0.21
44 | CUCUAGCAAUAUUACGACAG | -0.569 ± 0.13 | -1.95 ± 0.14
45 | CUCUAGCAAUAUUACGACCG | -0.785 ± 0.24 | -0.158 ± 0.23
46 | CUCUAGCAAUAUUACGAGAA | -2.02 ± 0.21 | -3.05 ± 0.41
47 | CUCUAGCAAUAUUACGAGAU | -2.94 ± 0.31 | -3.29 ± 0.43
48 | CUCUAGCAAUAUUACGAGCA | -3.04 ± 0.23 | -3.95 ± 0.33
49 | CUCUAGCAAUAUUACGAUCG | -0.281 ± 0.12 | -1.57 ± 0.081
50 | CUCUAGCAAUAUUACGAUGA | -1.93 ± 0.29 | -1.93 ± 0.2
51 | CUCUAGCAAUAUUACGAUGC | -3.25 ± 0.33 | -1.49 ± 0.17
